Laboratory results published in article PMC6891087.
pKd: −log10 of the molar value. Each block holds one substance with its values, some of them ahead of it.

How the values were obtained:
[1] = system: CPC_LM (Borealin-Survivin-INCENP1-58); test: SPR; details: SPR: 25 mM Hepes pH 8, 250 mM NaCl, 1 mM DTT, 0.05% Tween-20, 8 C, EMSA: 10 mM Tris pH 7.5, 100 mM NaCl, 1 mM MgCl2, 1 mM DTT, 1% glycerol, 0.1 mg/ml BSA, 20 nM
Sumo-Borealin110-188 = test: SPR; details: apparent, from normalized response; SPR: 25 mM Hepes pH 8, 250 mM NaCl, 1 mM DTT, 0.05% Tween-20, 8 C; EMSA: 10 mM Tris pH 7.5, 100 mM NaCl, 1 mM MgCl2, 1 mM DTT, 1% glycerol, 0.1 mg/ml BSA, 20 nM
Sumo-Borealin110-206 = test: SPR; details: apparent, from normalized response; SPR: 25 mM Hepes pH 8, 250 mM NaCl, 1 mM DTT, 0.05% Tween-20, 8 C; EMSA: 10 mM Tris pH 7.5, 100 mM NaCl, 1 mM MgCl2, 1 mM DTT, 1% glycerol, 0.1 mg/ml BSA, 20 nM
Sumo-Borealin189-206 = test: SPR; details: apparent, from normalized response; SPR: 25 mM Hepes pH 8, 250 mM NaCl, 1 mM DTT, 0.05% Tween-20, 8 C; EMSA: 10 mM Tris pH 7.5, 100 mM NaCl, 1 mM MgCl2, 1 mM DTT, 1% glycerol, 0.1 mg/ml BSA, 20 nM
CPC_LM BOR delta-loop = test: SPR; details: apparent, from normalized response; >=20 in review history; SPR: 25 mM Hepes pH 8, 250 mM NaCl, 1 mM DTT, 0.05% Tween-20, 8 C; EMSA: 10 mM Tris pH 7.5, 100 mM NaCl, 1 mM MgCl2, 1 mM DTT, 1% glycerol, 0.1 mg/ml BSA, 20 nM
[2] = target: unmodified nucleosome core particle (human | Xenopus laevis) (UniProt P04908); test: SPR; biotinylated NCPs immobilised (~500 RU) on a streptavidin chip, BIAcore T200; analytes 7.8 to 1,000 nM; 8°C; 25 mM Hepes, 250 mM NaCl, 1 mM DTT, 0.05% Tween-20, pH 8; steady-state 1:1 fit
[3] = target: nucleosome core particle with histone H3 phosphorylated at Thr3 (human | not stated | Xenopus laevis) (UniProt P04908); test: as above
CPC_LM delta189-206 = test: SPR; details: SPR: 25 mM Hepes pH 8, 250 mM NaCl, 1 mM DTT, 0.05% Tween-20, 8 C; EMSA: 10 mM Tris pH 7.5, 100 mM NaCl, 1 mM MgCl2, 1 mM DTT, 1% glycerol, 0.1 mg/ml BSA, 20 nM
CPC_LM BOR K198/T199E = test: SPR; details: SPR: 25 mM Hepes pH 8, 250 mM NaCl, 1 mM DTT, 0.05% Tween-20, 8 C; EMSA: 10 mM Tris pH 7.5, 100 mM NaCl, 1 mM MgCl2, 1 mM DTT, 1% glycerol, 0.1 mg/ml BSA, 20 nM
CPC_LM BOR K12/R17/K20E = test: SPR; details: SPR: 25 mM Hepes pH 8, 250 mM NaCl, 1 mM DTT, 0.05% Tween-20, 8 C, EMSA: 10 mM Tris pH 7.5, 100 mM NaCl, 1 mM MgCl2, 1 mM DTT, 1% glycerol, 0.1 mg/ml BSA, 20 nM
CPC_LM BOR 10-end = test: SPR; details: SPR: 25 mM Hepes pH 8, 250 mM NaCl, 1 mM DTT, 0.05% Tween-20, 8 C; EMSA: 10 mM Tris pH 7.5, 100 mM NaCl, 1 mM MgCl2, 1 mM DTT, 1% glycerol, 0.1 mg/ml BSA, 20 nM
CPC_LM delta110-188 = test: SPR; details: SPR: 25 mM Hepes pH 8, 250 mM NaCl, 1 mM DTT, 0.05% Tween-20, 8 C; EMSA: 10 mM Tris pH 7.5, 100 mM NaCl, 1 mM MgCl2, 1 mM DTT, 1% glycerol, 0.1 mg/ml BSA, 20 nM
[4] = histone H3 phospho-T3 (native chemical ligation; C110A, residue 32 C)

Substance: DNA (SPR ligand; presumably 601)
pKd ([1]; apparent, from normalized response, >=5 in review history): 5.30
pKd (Sumo-Borealin110-188): 5.00
pKd (Sumo-Borealin110-206): 5.30
pKd (Sumo-Borealin189-206): 4.70
pKd (CPC_LM BOR delta-loop): 4.70

pKd [2]: 6.59
Substance: CPC_LM containing Borealin lacking the C-terminal half of the loop (residues 189-206) (from UniProt Q53HL2 1-280; O15392 1-142; Q9NQS7 1-58) (complex)

pKd [2]: 6.07
Substance: CPC_LM containing Borealin 10-end (from UniProt Q53HL2 10-280; O15392 1-142; Q9NQS7 1-58) (complex)

pKd [2]: 5.74
Substance: CPC_LM containing Borealin lacking the N-terminal half of the loop (residues 110-188) (from UniProt Q53HL2 1-280; O15392 1-142; Q9NQS7 1-58) (complex)

Substance: CPC localization module (Borealin-Survivin-INCENP 1-58) (from UniProt Q53HL2 1-280; O15392 1-142; Q9NQS7 1-58) (complex)
pKd [3]: 6.99
pKd [2]: 6.53
stoichiometry N (CPC LM dimer per NCP) [2]: 1

pKd [2]: 6.28
Substance: CPC_LM containing Borealin K12/R17/K20E (from UniProt Q53HL2 1-280; O15392 1-142; Q9NQS7 1-58) (complex)

Substance: unmodified NCP (601)
pKd [1]: 6.53
pKd (CPC_LM delta189-206): 6.59
pKd (CPC_LM BOR K198/T199E): 6.40
pKd (CPC_LM BOR K12/R17/K20E): 6.28
pKd (CPC_LM BOR 10-end): 6.07
pKd (CPC_LM delta110-188): 5.74

Substance: H3T3ph NCP (601)
pKd [1, 4]: 6.99
pKd (CPC_LM BOR K12/R17/K20E; [4]): 6.17
